# Source: publication PMC4072508, “Genome-Wide Prediction and Validation of Peptides That Bind Human Prosurvival Bcl-2 Proteins” (PLoS Computational Biology, 2014)
# T1: Mcl-1, Q07820
# T1 chain: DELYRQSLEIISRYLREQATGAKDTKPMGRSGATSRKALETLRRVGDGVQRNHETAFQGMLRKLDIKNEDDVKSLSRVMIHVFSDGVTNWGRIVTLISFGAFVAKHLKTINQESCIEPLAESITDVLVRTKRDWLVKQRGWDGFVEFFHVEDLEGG
# B1: APOB (peptide)
# chain: CVQSTKPSLMIQKAAIQALRKMEPKD
# B2: KIAA1383 (peptide)
# chain: RTGDIALAYRLTDLGSRLLSQLERPL
# B3: GRIK5 (peptide)
# chain: ERFEGFCVDMLRELAELLRFRYRLRL
# B4: GAPVD1 (peptide)
# chain: RFNLMQVGRLLQQLAMTGSEEGDPRT
# B5: GALNTL6 (peptide)
# chain: VPSGTSLARNLKRVAETWMDEFAEYI
# B6: NOTCH3 (peptide)
# chain: EELLRSSADFLQRLSAILRTSLRFRL
# B7: SLITRK6 (peptide)
# chain: QLQTLPYVGFLEHIGRILDLQLEDNK
# B8: ACCN3 (peptide)
# chain: AAVVLSVATFLYQVAERVRYYREFHH
# B9: STOML1 (peptide)
# chain: ADLRALLCRELRPLGAYMSGRLKVKG
# B10: STX10 (peptide)
# chain: LEMVSGSIQVLKHMSGRVGEELDEQG
# B11: CCT5 (peptide)
# chain: EQAARVAIEHLDKISDSVLVDIKDTE
# B12: RASAL2 (peptide)
# chain: SRTLTLIAKVIQNLANFAKFGNKEEY
# B13: MED17 (peptide)
# chain: KKSLAGAAQILLKGAERLTKSVTENQ
# B14: SPG20 (peptide)
# chain: VKGAEITGKAIQKGASKLRERIQPEE
# B15: XXXX (peptide)
# chain: EEITSDAAYVIQDLATLFEELQREKK
# B16: GCN1L1 (peptide)
# chain: MAADTQVSETLKRFAGKVTTASVKER
# B17: DFFB (peptide)
# chain: PQRQRLLADLLHNVSQNIAAETRAED
# B18: FIGNL2 (peptide)
# chain: DISALTASNLLKRYAEKYSGVLDSPY
# B19: KIT (peptide)
# chain: EGEEFTVTCTIKDVSSSVYSTWKREN
# B20: CLINT1 (peptide)
# chain: YKSLLLLAYLIRNGSERVVTSAREHI
# B21: RAD51L3 (peptide)
# chain: KTVVDLVSADLEEVAQKCGLSYKAEA
# B22: BBC3 (peptide)
# chain: EQWAREIGAQLRRMADDLNAQYERRR
# B23: BFSP1 (peptide)
# chain: AYKTVEVVESIEKISTESIQTYEETA
# B24: BARD1 (peptide)
# chain: PKPDSDVTQTINTVAYHARPDSDQRF
# B25: GALNT10 (peptide)
# chain: VPAGVSLARNLKRVAEVWMDEYAEYI
# B26: CCT3 (peptide)
# chain: CKDPKACTILLRGASKEILSEVERNL
# B27: TXNDC11 (peptide)
# chain: TRELQELARKDQELADASENLLTENT
# B28: NTRK2 (peptide)
# chain: QDKILVAVKTLKDASDNARKDFHREA
# B29: SYNGAP1 (peptide)
# chain: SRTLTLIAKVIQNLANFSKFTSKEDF
# B30: NTRK1 (peptide)
# chain: QDKMLVAVKALKEASESARQDFQREA
# B31: BCL2L11 (peptide)
# chain: MRPEIWIAQELRRIGDEFNAYYARRV
# B32: DAGLB (peptide)
# chain: EVQDRLAHKGISQAARYVYQRLINDG
# B33: TACC2 (peptide)
# chain: LEGFRKNEEVLKRCAQEYLSRVKKEE
# B34: VPS8 (peptide)
# chain: AIVADRMVEILFHYADRALKKCPDQG
# B35: CD2BP2 (peptide)
# chain: LLPRETVAGALRRLGARGGGKGRKGP
# B36: SCAND3 (peptide)
# chain: PLSNDTIARRIQELANDMEDQLIEQI
# B37: GLDC (peptide)
# chain: HNATLILSEGLKRAGHQLQHDLFFDT
# B38: MMAB (peptide)
# chain: GETDANVAKFLNRLSDYLFTLARYAA
# B39: SNTG2 (peptide)
# chain: NATHEEVVHLDRNAGDEVTITVEYLR
# B40: HEATR6 (peptide)
# chain: PSIQLHGAKLLEELGTGLIQQYKPDS
# B41: CLEC12A (peptide)
# chain: SNKIRNLSTTLQTIATKLCRELYSKE
# B42: C1orf125 (peptide)
# chain: SKVRERYVQMLDQIARQMIDFYKDLV
# B43: LRRN1 (peptide)
# chain: VMGSMFAVISLASIAVYFAKRFKRKN
# B44: PGBD1 (peptide)
# chain: KKDKARVSELLQGLSFSGDSDVEKDN
# B45: C19orf51 (peptide)
# chain: EITQHNVTELLRDVAAWGRARATGGD
# B46: NXF5 (peptide)
# chain: FVQVASAASALKDVSYKIYDDENQKI
# B47: GINS1 (peptide)
# chain: FEVDDGTSVLLKKNSQHFLPRWKCEQ
# B48: MAGEE1 (peptide)
# chain: KEYRNQFPEILRRAAAHLECIFRFEL
# B49: DEPDC5 (peptide)
# chain: LFIPLNISCLLKEGSEHLFDSFEPET
# B50: FASTK (peptide)
# chain: KVRAHHYSVALRRLGQLLGSRPRPPP
# B51: CCDC24 (peptide)
# chain: IIKDQLNVSNIDQVARHLRGLLEEEC
# B52: NXF2 (peptide)
# chain: FVQDASAASALKDVSYKIYDDENQKI
# B53: PCDHB13 (peptide)
# chain: TGVNGEISYSLFQASEEIGKTFKINP
# B54: ZFPM2 (peptide)
# chain: ITMVPQASEILAKMSELVHRRLRHGS
# Biological target: T1, Mcl-1, Q07820
# Assay: peptide SPOT array, c-Myc-tagged receptor at 1 uM or 100 nM, anti-c-Myc-Cy3
row,SPOT signal as a fraction of Bim BH3's signal on the same receptor and array,Binder
1,0.09,B1
2,0.03,B2
3,0.11,B3
4,0.04,B4
5,0.02,B5
6,0.11,B6
7,0.02,B7
8,0.03,B8
9,0.37,B9
10,0.02,B10
11,0.01,B11
12,0.08,B12
13,0.03,B13
14,0.02,B14
15,0.02,B15
16,0.11,B16
17,0.02,B17
18,0.03,B18
19,0.02,B19
20,0.05,B20
21,0.01,B21
22,0.76,B22
23,0.01,B23
24,0.01,B24
25,0.02,B25
26,0.02,B26
27,0.01,B27

row,SPOT signal as a fraction of Bim BH3's signal on the same receptor and array,Binder
1,0.02,B28
2,0.02,B30
3,1,B31
4,0.16,B32
5,0.04,B33
6,0.02,B34
7,0.13,B35
8,0.02,B36
9,0.02,B37
10,0.02,B38
11,0.01,B39
12,0.01,B40
13,0.17,B41
14,0.03,B42
15,0.13,B43
16,0.01,B44
17,0.02,B45
18,0.02,B46
19,0.05,B47
20,0.02,B48
21,0.02,B49
22,0.14,B50
23,0.02,B51
24,0.01,B52
25,0.01,B53
26,0.1,B54

row,Binder,SPOT signal as a fraction of Bim BH3's signal on the same receptor and array
1,B29,0.08
